Data: patent publication US20180362628A1 (KYMAB, published 2018)
Where two headings read alike, the source gives them in different places. No end group written: not given here. *: point of attachment. Biotin = O=C1N[C@H]2[C@H](CS[C@H]2CCCCC(=O)*)N1

Tests used:
[1] = target: T1, Peptide #3 (Biotin-SGSGHKKLKQPGDGNPDPNANPN) (N-terminal biotin); test: BLI, biotin-peptide on streptavidin sensor, IgG1 in solution, 25 C;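 on Response (nm): antibody solution at 30 µg/mL during association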
T1 construct: also called Peptide #3 44288
T1 peptide: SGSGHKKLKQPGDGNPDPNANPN

[2] = target: T2, Peptide #4 (Biotin-SGSGNPDPNANP); test: as above
T2 construct: also called Peptide #4 44285
T2 peptide: Biotin-SGSGNPDPNANP

[3] = target: T3, Peptide #5 (Biotin-SGSGDGNPDPNANPNV), original sequence of the alanine scan; test: as above
T3 construct: also called Peptide #5 44289
T3 peptide: Biotin-SGSGDGNPDPNANPNV

[4] = target: T4, Peptide #6 (Biotin-SGSGAGNPDPNANPNV); test: as above
T4 construct: alanine scan variant; also called Peptide #6 44290
T4 peptide: Biotin-SGSGAGNPDPNANPNV

[5] = target: T5, Peptide #7 (Biotin-SGSGDANPDPNANPNV); test: as above
T5 construct: alanine scan variant; also called Peptide #7 44291
T5 peptide: Biotin-SGSGDANPDPNANPNV

[6] = target: T6, Peptide #8 (Biotin-SGSGDGAPDPNANPNV); test: as above
T6 construct: alanine scan variant; also called Peptide #8 44292
T6 peptide: Biotin-SGSGDGAPDPNANPNV

[7] = target: T7, Peptide #9 (Biotin-SGSGDGNADPNANPNV); test: as above
T7 construct: alanine scan variant; also called Peptide #9 44293
T7 peptide: Biotin-SGSGDGNADPNANPNV

[8] = target: T8, Peptide #10 (Biotin-SGSGDGNPAPNANPNV); test: as above
T8 construct: alanine scan variant; also called Peptide #10 44294
T8 peptide: Biotin-SGSGDGNPAPNANPNV

[9] = target: T9, Peptide #11 (Biotin-SGSGDGNPDANANPNV); test: as above
T9 construct: alanine scan variant; also called Peptide #11 44295
T9 peptide: Biotin-SGSGDGNPDANANPNV

[10] = target: T10, Peptide #12 (Biotin-SGSGDGNPDPAANPNV); test: as above
T10 construct: alanine scan variant; also called Peptide #12 44296
T10 peptide: Biotin-SGSGDGNPDPAANPNV

[11] = target: T11, Peptide #14 (Biotin-SGSGDGNPDPNAAPNV); test: as above
T11 construct: alanine scan variant; also called Peptide #14 44298
T11 peptide: Biotin-SGSGDGNPDPNAAPNV

[12] = target: T12, Peptide #15 (Biotin-SGSGDGNPDPNANANV); test: as above
T12 construct: alanine scan variant; also called Peptide #15 44299
T12 peptide: Biotin-SGSGDGNPDPNANANV

[13] = target: T13, Peptide #16 (Biotin-SGSGDGNPDPNANPAV); test: as above
T13 construct: alanine scan variant; also called Peptide #16 44300
T13 peptide: Biotin-SGSGDGNPDPNANPAV

[14] = target: T14, Peptide #17 (Biotin-SGSGDGNPDPNANPNA); test: as above
T14 construct: alanine scan variant; also called Peptide #17 44301
T14 peptide: Biotin-SGSGDGNPDPNANPNA

[15] = target: T15, Peptide #1 (Biotin-SGSGKPKHKKLKQPGDGNPDPNANP) (N-terminal biotin); test: as above
T15 construct: also called Peptide #1 44286
T15 peptide: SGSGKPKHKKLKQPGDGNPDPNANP

[16] = target: T16, Recombinant CSP (Wellcome Trust Sanger Institute, FIG. 22), CSP ectodomain with BirA biotinylation tag, … (Plasmodium falciparum strain 3D7, UniProt Q7K740 19-376, biotinylated at the BirA substrate peptide); test: SPR, IgG1 captured, CSP as analyte, 40 C; apparent affinity (avidity)
T16 construct: extracellular domain; Expressed in HEK293, 45 kDa; order of the tags is that of the legend, not confirmed; also called biotinylated recombinant CSP

[17] = target: T1, Peptide #3 …; test: BLI, biotin-peptide on streptavidin sensor, IgG1 in solution, 25 C;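 on Response (nm): antibody solution at 30 µg/mL during association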
[18] = target: T2, Peptide #4 (Biotin-SGSGNPDPNANP); test: as above
[19] = target: T3, Peptide #5 (Biotin-SGSGDGNPDPNANPNV), …; test: as above
[20] = target: T4, Peptide #6 (Biotin-SGSGAGNPDPNANPNV); test: as above
[21] = target: T5, Peptide #7 (Biotin-SGSGDANPDPNANPNV); test: as above
[22] = target: T6, Peptide #8 (Biotin-SGSGDGAPDPNANPNV); test: as above
[23] = target: T7, Peptide #9 (Biotin-SGSGDGNADPNANPNV); test: as above
[24] = target: T8, Peptide #10 (Biotin-SGSGDGNPAPNANPNV); test: as above
[25] = target: T9, Peptide #11 (Biotin-SGSGDGNPDANANPNV); test: as above
[26] = target: T10, Peptide #12 (Biotin-SGSGDGNPDPAANPNV); test: as above
[27] = target: T11, Peptide #14 (Biotin-SGSGDGNPDPNAAPNV); test: as above
[28] = target: T12, Peptide #15 (Biotin-SGSGDGNPDPNANANV); test: as above
[29] = target: T13, Peptide #16 (Biotin-SGSGDGNPDPNANPAV); test: as above
[30] = target: T14, Peptide #17 (Biotin-SGSGDGNPDPNANPNA); test: as above
[31] = target: T15, Peptide #1 …; test: as above
[32] = target: T17, full CSP protein (analyte of Example 12) (Plasmodium falciparum (isolate 3D7), UniProt Q7K740 19-374); test: SPR, IgG1 from supernatant on anti-human IgG surface, CSP as analyte, 25 C, 1:1 fit
T17 construct: not shown: C-terminal tags

B1: Antibody 669, human IgG1 (antibody, V domains shown)
VH: QVQLVQSGAEVKKPGASVRVSCKASGFTFTSYAMHWVRQAPGQRLEWMGWINAGNGHTKYSQKFQDRVAITRDTSATTVYMDLSSLRSEDTAVYYCTRDGFCTSTTCSDHYGMDVWGQGTTVTVSS
VL: QSALTQPASVSGSPGQSITISCTGTSSDVGSYNYVSWYQQHPGKAPKFMIYDVSKRPSGVSNRFSGSKSGNTASLTISGLQAEDEADYYCCSYAGSSTWVFGGGTKLTVL
notes: human IgG1; HEK (Expi293F) product; also called AB-000669; Ab669
Response (nm) [1]: 5.06 nm
Response (nm) [2]: 5.27 nm
Response (nm) [3]: 3.76 nm
Response (nm) [4]: 3.82 nm
Response (nm) [5]: 3.86 nm
Response (nm) [6]: 3.79 nm
Response (nm) [7]: 3.68 nm
Response (nm) [8]: 4.48 nm
Response (nm) [9]: 2.18 nm
Response (nm) [10]: 2.81 nm
Response (nm) [11]: 0.0239 nm
binding result [11]: no binding (tested: LOD 0.125 nm)
Response (nm) [12]: 2.82 nm
Response (nm) [13]: 3.66 nm
Response (nm) [14]: 3.85 nm
Response (nm) [15]: 5.83 nm
Kd [16]: 0.47 nM
koff [16]: 0.000125 s⁻¹
kon [16]: 265000 M⁻¹ s⁻¹

B2: Antibody 666, human IgG1 (antibody, V domains shown)
VH: QVQLVQSGAEVKKPGASVKVSCKASGYTFTNYAMHWVRQAPGQRLEWMGWINAGNGNTKYSQNFQGRVTITRDTSASTAYMELSSLRSEDTAVYYCARDEYYASGSYYDYYYYGMDVWGQGTTVTVTS
VL: QSALTQPASVSGSPGQSITISCTGTSSDVGVYNYVSWFQQHPGKAPKLMIYNVSKRPSGVSNRFSGSKSGNTASLTISGLQAEDEADYYCCSYAGSSTWVFGGGTNLTVL
notes: human IgG1; also called Ab666
Response (nm) [17]: 6.53 nm
Response (nm) [18]: 7.06 nm
Response (nm) [19]: 2.4 nm
Response (nm) [20]: 3.14 nm
Response (nm) [21]: 2.99 nm
Response (nm) [22]: 2.23 nm
Response (nm) [23]: 1.75 nm
Response (nm) [24]: 5.18 nm
Response (nm) [25]: 0.982 nm
Response (nm) [26]: 0.0943 nm
Response (nm) [27]: 0.0116 nm
binding result [27]: no binding (tested: LOD 0.020 nm)
Response (nm) [28]: 0.862 nm
Response (nm) [29]: 2.7 nm
Response (nm) [30]: 2.95 nm
Response (nm) [31]: 9.06 nm
Kd [16]: 0.18 nM
koff [16]: 1.7e-05 s⁻¹
kon [16]: 97000 M⁻¹ s⁻¹
kon [32]: 1e+08 M⁻¹ s⁻¹
